In article PMC8740593:

Target: T1, QHB-DB (QHB/OsWOX5 DNA-binding domain) (Oryza sativa (rice), UniProt Q8W0F1 1-82)
T1 sequence: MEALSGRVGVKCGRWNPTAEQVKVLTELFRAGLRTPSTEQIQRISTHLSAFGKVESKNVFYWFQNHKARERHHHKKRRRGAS
Assay: EMSA

Binder	binding result
Positive control (AGAMOUS intron) (dsDNA) DNA 1: ATGTCTATTGGATTTATACCCAATGTGTTAATGGGTTGTTGACACATGTCACATGTCTGA DNA 2: TCAGACATGTGACATGTGTCAACAACCCATTAACACATTGGGTATAAATCCAATAGACAT	binds
P1 (dsDNA) DNA 1: AAAGATAATAAAAATGTTTATTTCGATGCATTAATTAGTTGTTAGAGTCTTTTGTTGTGT DNA 2: ACACAACAAAAGACTCTAACAACTAATTAATGCATCGAAATAAACATTTTTATTATCTTT	no binding
P2 (dsDNA) DNA 1: TTTTATAATTAATCACTCCTTGCTGCTTAATCACCCAATTAATCACACCTGATCTACCCA DNA 2: TGGGTAGATCAGGTGTGATTAATTGGGTGATTAAGCAGCAAGGAGTGATTAATTATAAAA	binds
P3 (dsDNA) DNA 1: GTAGATGGTACCCGCTGCAGTAAGCCTCCATTAAGCTTGAATTGCTGCTCCCTTGGGCGC DNA 2: GCGCCCAAGGGAGCAGCAATTCAAGCTTAATGGAGGCTTACTGCAGCGGGTACCATCTAC	no binding
M1 (Core 1 mutated) (dsDNA) DNA 1: TTTTATGGCCGGTCACTCCTTGCTGCTTAATCACCCAATTAATCACACCTGATCTACCCA DNA 2: TGGGTAGATCAGGTGTGATTAATTGGGTGATTAAGCAGCAAGGAGTGACCGGCCATAAAA	no binding
M3 (Core 3 mutated) (dsDNA) DNA 1: TTTTATAATTAATCACTCCTTGCTGCTTAATCACCCAACCGGTCACACCTGATCTACCCA DNA 2: TGGGTAGATCAGGTGTGACCGGTTGGGTGATTAAGCAGCAAGGAGTGATTAATTATAAAA	no binding
